Laboratory results taken from patent US20200109188A1 (AstraZeneca / MedImmune, published 2020).
Like-named read-outs stand apart in the source and are kept apart here.

Legend:
Experiment in all cases: cell-based or functional assay
[1] = biological target: HA of ca A/Wuhan/359/95 (H3N2) virus (influenza A virus)
[2] = biological target: HA of A/Hong Kong/8/68 (H3N2) virus (influenza A virus)
[3] = biological target: HA of A/Victoria/3/75 (H3N2) virus (influenza A virus, UniProt P03435 17-567)
[4] = biological target: HA of H3-LA87 (A/Los Angeles/7/09 (H3N2)) virus (influenza A virus)
[5] = biological target: HA of ca A/New Caledonia/20/99 (H1N1) virus (influenza A virus)
[6] = biological target: HA of ca A/Wuhan/359/95 (H3N2) virus (influenza A virus); remark: listed apart in the source
[7] = biological target: HA of A/Fort Monmouth/1/47 (H1N1) virus (influenza A virus)
[8] = biological target: HA of A/Wisconsin/67/05 (H3N2) virus (influenza A virus)
[9] = biological target: HA of ca A/Beijing/262/95 (H1N1) virus (influenza A virus)
[10] = biological target: HA of A/Kawasaki/9/86 (H1N1) virus (influenza A virus)
[11] = biological target: HA of A/Victoria/361/11 (H3N2) virus (influenza A virus)
[12] = biological target: HA of ca A/Panama/2007/99 (H3N2) virus (influenza A virus)
[13] = biological target: HA of ca A/Texas/36/91 (H1N1) virus (influenza A virus)
[14] = biological target: HA of ca A/Sydney/5/97 (H3N2) virus (influenza A virus)
[15] = biological target: HA of H1-BS10 virus
[16] = biological target: HA of ca A/Perth/16/09 (H3N2) virus (influenza A virus)
[17] = biological target: HA of A/Puerto Rico/8/34 (H1N1) virus (influenza A virus, UniProt P03452 18-565)
Chain of HA of A/Puerto Rico/8/34 (H1N1) virus (P03452 18-565 limits assumed): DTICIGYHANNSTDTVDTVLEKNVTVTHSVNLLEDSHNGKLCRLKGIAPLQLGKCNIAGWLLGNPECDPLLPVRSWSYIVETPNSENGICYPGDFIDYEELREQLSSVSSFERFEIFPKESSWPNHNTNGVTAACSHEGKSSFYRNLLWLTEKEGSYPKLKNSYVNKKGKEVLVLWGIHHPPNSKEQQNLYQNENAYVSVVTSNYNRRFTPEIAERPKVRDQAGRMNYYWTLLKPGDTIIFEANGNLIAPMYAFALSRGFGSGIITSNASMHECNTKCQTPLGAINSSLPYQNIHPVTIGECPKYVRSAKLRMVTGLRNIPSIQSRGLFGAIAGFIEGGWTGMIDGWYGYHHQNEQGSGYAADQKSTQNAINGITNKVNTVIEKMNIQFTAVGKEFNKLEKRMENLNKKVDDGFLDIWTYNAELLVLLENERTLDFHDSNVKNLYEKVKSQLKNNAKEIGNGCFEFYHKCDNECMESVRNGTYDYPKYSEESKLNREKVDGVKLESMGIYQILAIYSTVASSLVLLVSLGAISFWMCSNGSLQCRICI

Chain of HA of A/Victoria/3/75 (H3N2) virus (P03435 17-567 limits assumed): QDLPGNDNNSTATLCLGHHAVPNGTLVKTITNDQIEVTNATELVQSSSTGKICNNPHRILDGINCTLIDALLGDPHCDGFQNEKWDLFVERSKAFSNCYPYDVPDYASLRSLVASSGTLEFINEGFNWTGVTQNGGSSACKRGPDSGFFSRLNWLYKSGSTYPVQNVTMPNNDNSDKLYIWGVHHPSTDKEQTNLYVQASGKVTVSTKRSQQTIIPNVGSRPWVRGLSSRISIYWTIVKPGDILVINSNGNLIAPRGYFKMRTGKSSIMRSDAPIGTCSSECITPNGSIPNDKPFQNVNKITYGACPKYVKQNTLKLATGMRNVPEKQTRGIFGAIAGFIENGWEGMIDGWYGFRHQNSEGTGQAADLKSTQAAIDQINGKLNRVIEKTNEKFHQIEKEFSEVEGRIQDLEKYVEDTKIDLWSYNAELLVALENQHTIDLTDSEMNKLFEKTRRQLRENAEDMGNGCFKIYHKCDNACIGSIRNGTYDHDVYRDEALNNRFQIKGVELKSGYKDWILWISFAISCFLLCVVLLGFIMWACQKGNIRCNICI

| Binder | Neutralization IC50, H3-WH95 [1] [mg/L] | Neutralization IC50, H3-HK68 [2] [mg/L] | Neutralization IC50, H3-Vic75 [3] [mg/L] | Neutralization IC50, H3-LA87 [4] [mg/L] | Neutralization IC50, H1-Ncal99 [5] [mg/L] | Neutralization IC50, H3-WH95 [6] [mg/L] | Neutralization IC50, H3-WH95-OR [6] [mg/L] | Neutralization IC50, H1-FM47 [7] [mg/L] | Neutralization IC50, H3-Wl05 [8] [mg/L] | Neutralization IC50, H1-BJ95 [9] [mg/L] | Neutralization IC50, H1-Kaw86 [10] [mg/L] | Neutralization IC50, H3-VC11 [11] [mg/L] | Neutralization IC50, H3-Pa99 [12] [mg/L] | Neutralization IC50, H1-TX91 [13] [mg/L] | Neutralization IC50, H3-Syd97 [14] [mg/L] | Neutralization IC50, H1-BS10 [15] [mg/L] | Neutralization IC50, H3-Perth09 [16] [mg/L] | IC50 (read off the curve) [17] [mg/L] |
| --- | --- | --- | --- | --- | --- | --- | --- | --- | --- | --- | --- | --- | --- | --- | --- | --- | --- | --- |
| Antibody 5 (antibody, V domains shown) VH: QVQLQQSGPGLVKPSQTLSLTCAISGDRVSSNSAVWNWIRQSPSRGLEWLGRTYYRSKWYYDYAESVKSRIVIDPDTSKNQVSLQLNSVTPEDSAIYYCARGGHITVFGLNIDAYDIWGQGAMVTVSS VL: DIQMTQSPSSLSASVGDRVTISCRAQSLSSYLHWYQQKPGQPPKLLIYAATTLQSGVPSRFSGSGSGTDFTLTISTFQAEDVATYYCQQSRTFGQGTKVEIK | 3.72 | – | – | – | – | – | – | – | – | – | – | – | – | – | – | – | – | – |
| Antibody 6 (antibody, V domains shown) VH: QVQLQQSGPGLVKPSQTLSLTCAISGDRVSSNSAVWNWIRQSPSRGLEWLGRTYYRSKWYYDYAESVKSRIVIDPDTSKNQVSLQLNSVTPEDSAIYYCARGGHITEFGLNIDAYDIWGQGAMVTVSS VL: DIQMTQSPSSLSASVGDRVTISCRAQSLSSYLHWYQQKPGQPPKLLIYAATTLQSGVPSRFSGSGSGTDFTLTISTFQAEDVATYYCQQSRTFGQGTKVEIK | 10.5 | – | – | – | – | – | – | – | – | – | – | – | – | – | – | – | – | – |
| Antibody 11 (antibody, V domains shown) VH: QVQLQQSGPGLVKPSQTLSLTCAISGDSVSSYNAVWNWIRQSPSRGLEWLGRTYYRSGWYNDYAESVKSRITINPDTSKNQFSLQLNSVTPEDTAVYYCARSGHITVFGVNVDAFDMWGQGTMVTVSS VL: DIQMTQSPSSLSASVGDRVTITCRTSQSLSSYTHWYQQKPGKAPKLLIYAASSRLSGVPSRFSGSGSGTDFTLTISSLQPEDFATYYCQQSRTFGQGTKVEIK | – | 0.46 | 0.46 | 0.8 | 0.66 | 2.45 | 2.26 | 0.43 | 1.07 | 1.01 | 0.53 | 0.85 | 2.18 | 0.11 | 1.53 | 1.15 | 0.17 | – |
| Antibody 13 (antibody, V domains shown) VH: QVQLQQSGPGLVKPSQTLSLTCAISGDSVSSYNAVWNWIRQSPSRGLEWLGRTYYRSGWYNDYAESVKSRITINPDTSKNQFSLQLNSVTPEDTAVYYCARSGHITVFGVNVDAFDMWGQGTMVTVSS VL: DIQMTQSPSSLSASVGDRVTITCRTSQSLSSYDHWYQQKPGKAPKLLIYAASSRLSGVPSRFSGSGSGTDFTLTISSLQPEDFATYYCQQSRTFGQGTKVEIK | – | 0.44 | 0.43 | 1 | 0.77 | 2.77 | 3.01 | 0.5 | 1.19 | 1.86 | 0.41 | 1.03 | 2.62 | 0.09 | 2.18 | 1.23 | 0.28 | – |
| Antibody 14 (antibody, V domains shown) VH: QVQLQQSGPGLVKPSQTLSLTCAISGDSVSSNNAVWNWIRQSPSRGLEWLGRTYYRSKWYNDYAESVKSRITINPDTSKNQFSLQLNSVTPEDTAVYYCARSGHITVFGVNVDAFDMWGQGTTVTVSS VL: DIQMTQSPSSLSASVGDRVTITCRTSQSLSSYTHWYQQKPGKAPKLLIYAASSRLSGVPSRFSGSGSGTDFTLTISSLQPEDFATYYCQQSRTFGQGTKVEIK | – | 0.65 | 0.44 | 0.83 | 0.67 | 2.77 | 3.09 | 0.44 | 1.19 | 2.09 | 0.35 | 1.15 | 4.36 | 0.09 | 1.82 | 1.93 | 0.47 | – |
| Antibody 15 (antibody, V domains shown) VH: QVQLQQSGPGLVKPSQTLSLTCAISGDSVSSNNAVWNWIRQSPSRGLEWLGRTYYRSKWYNDYAESVKSRITINPDTSKNQFSLQLNSVTPEDTAVYYCARSGHITVFGVNVDAFDMWGQGTTVTVSS VL: DIQMTQSPSSLSASVGDRVTITCRTSQSLSSYTHWYQQKPGKAPKLLIYAASSRGSGVPSRFSGSGSGTDFTLTISSLQPEDFATYYCQQSRTFGQGTKVEIK | – | 0.5 | 0.35 | 0.83 | 0.79 | 3.32 | 3.48 | 0.35 | 1.3 | 1.81 | 0.48 | 1.29 | 3.39 | 0.13 | 1.79 | 1.89 | 0.5 | – |
| Antibody 3 (antibody, V domains shown) VH: QVQLQESGPGLVKPSQTLSLTCAISGDSVSSNNAVWNWIRQSPSRGLEWLGRTYYRSKWYNDYAESVKSRITVNPDTSKNQFSLHLKSVTPEDTAVFYCVRSGHITVFGVNVDAFDMWGQGTMVTVSS VL: DIQMTQSPSSLSASVGDRVTITCRTSQSLSSYLHWYQQKPGKAPKLLIYAASSLQSGVPSRFSGSGSGTDFTLTISSLQPEDFATYYCQQSRTFGQGTKVEIK | 3.96 | – | – | – | – | 5.63 | 7.7 | – | – | – | – | – | – | – | – | – | – | ~0.6 |
| Antibody 10 (antibody, V domains shown) VH: QVQLQQSGPGLVKPSQTLSLTCAISGDSVSSNSATWNWIRQSPSRGLEWLGRTYYRSKWYNDYADFLKRRITINPDTSNNEVSLRLTSVTPDDTALYYCARGGHITVFGVNIDAFDVWGQGTMVTVSS VL: DIQMTQSPSSLSASVGDRITISCRTSQSLRSYLHWYQQKPGKAPKLLIYASSTLQSGVPSRFSGSGSGTDFTLTISNLQPEDFATYYCQLSRTFGQGTKVEIK | 8.7 | – | – | – | – | – | – | – | – | – | – | – | – | – | – | – | – | – |
| Antibody 12 (antibody, V domains shown) VH: QVQLQQSGPGLVKPSQTLSLTCAISGDSVSSYNAVWNWIRQSPSRGLEWLGRTYYRSGWYNDYAESVKSRITINPDTSKNQFSLQLNSVTPEDTAVYYCARSGHITVFGVNVDAFDMWGQGTMVTVSS VL: DIQMTQSPSSLSASVGDRVTITCRTSQSLSSYTHWYQQKPGKAPKLLIYAASSRGSGVPSRFSGSGSGTDFTLTISSLQPEDFATYYCQQSRTFGQGTKVEIK | – | 0.42 | 0.32 | 0.82 | 0.61 | 2.09 | 2.34 | 0.28 | – | 1.31 | 0.28 | 0.83 | – | 0.12 | 1.56 | 1.25 | 0.25 | ~0.5 |
| Antibody 8 (antibody, V domains shown) VH: QVQLQQSGPGLVKPSQTLSLTCVISGDTVSSNRATWNWMRQSPLRGLEWLGRTYYRSKWYNDYAVSVKSRVVINPDTSKNQVSLQLNTVTPDDSGVYFCARGGHITVFGVNIDAFDIWGLGTKVTVSS VL: DIQMTQSPSSLSASVGDRVTISCRASQRLNSYLHWYQQTPGQAPKLLIYATSTLQSGVSPRFSGSGSGTDFTLTISSLQPEDVATYYCQLSRTFGHGTKVEIK | > 50 | – | – | – | – | – | – | – | – | – | – | – | – | – | – | – | – | – |
